One substance from US20210255174 can be followed below.

The test system of this data set is SNAPtide (FITC/DABCYL), List Biological Laboratories product #521.

For “BoNT/A complex (intact BoNT/A toxin complex, Metabiologics)”, the “Km of SNAPtide hydrolysis, bead-immobilized BoNT/A (bead based ALISSA)” value was “bead based ALISSA: typical Km=0.2 µM” and the “Km of SNAPtide hydrolysis, free BoNT/A (non-bead based assay)” value is listed as “non-bead based assay: typical Km=0.7 µM”.
